A short description of this series: yeast display, Sf9 membrane polyspecificity reagent, FACS + sequencing; frameworks hold sequencing errors. An outline of the steps: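 Galactose-induced (36–48 hours) yeast carrying a synthetic nanobody display library were exposed to 10% biotinylated, detergent-solubilized Sf9 membrane reagent at 4 °C for 1 hour. FACS followed streptavidin microbead enrichment, using low and high (top ~1%) gates for expression (anti-HA) and reagent binding (streptavidin). Colony PCR, MiSeq 2 × 250 sequencing and CDR-length filtering followed. Labels for polyreactivity reflect the gate of origin.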
Take “QVQLVESGGGLVQAGGSHRLSCAASGRTFPFYAMGWYRQAPGTERELVADITSSGGSTYYADSVKGRFTISRDNAKNTVYLQMNSLKPEDSAVYYCAADPIDISYWEFDYWGQGTQVTVSS”: the “polyreactivity (PSR sort gate)” value was “low polyreactivity”.
On to “QVQLVESGGGLVQAGGSHRLSCAASGRTFRYNAMGWYRQATGKERELVAAISTRGGSTYYADSVKGRFTISRDNAKNTVYLQMNSLKPEDTAVYYCATKVYSSRYRGYGYWGQGTQVTVSS”, for which the “polyreactivity (PSR sort gate)” value was “high polyreactivity”.
The entry for “QVQLVESGGGLVQAGGSHRLSCAASGRTFSGYAMGWYRQAPGKERELVAAISFSGGSTYYADSVKGRFTISRDNAKNTVYLQMNSLKPEDTAVYYCAAEFVRQNYEMDYWGQGTQVTVSS” is “low polyreactivity”.
With “QVQLVESGGGLVQAGGSHRLSCAASGRTFSYNAMGWYRQAPGKERELVASITSSGGGTSYADSVKGRFTISRDNAKNTVYLQMNSLKPEDTAVYYCNRVLPHPDGYGVGARGYWGQGTQVTVSS”, the “polyreactivity (PSR sort gate)” value was “high polyreactivity”.
The entry for “QVQLVESGGGLVQAGGSHRLSCAASGRTFSYYAMGWYRQAPGKEREMDADISKSGGRTYYADSLKGRFTISRDNAKNTVYLQMNSLKPEDTAVYYCAAGFYWAVYYSVDYWGQGTQVTVSS” is “high polyreactivity”; for “QVQLVESGGGLVQAGGSHRLSCAASGRTFYRNAMGWYRPAPGKERELVAAITSGGGTTYADSVKGRFTISRDNAKNTVYLQMNSLKPEDTAVYYCAKRYNGRFRLGYEYWGQGTQVTVSS” it is “high polyreactivity”; for “QVQLVESGGGLVQAGGSHRLSCAASGSIFNRYAMGWYRQAPGKERELVAAITAGGSSTYYADSVKGRFTISRDNAKNTVYLQMNSLKPEDTAVYYCNAVWWHPKDYDYWGQGTQVTVSS” it is “low polyreactivity”.
Take “QVQLVESGGGLVQAGGSHRLSCAASGSIFQSYAMGWYRQAPGKERELVAAIDRSGTSTYYADSVKGRFTISRDNAKNTVYLQMNSLKPEDTAVYYCNTLRRSWQMDYWGQGTQVTVSS”: the “polyreactivity (PSR sort gate)” value is given as “low polyreactivity”.
As for “QVQLVESGGGLVQAGGSHRLSCAASGSIFRGYAMGWSIQAPGKERELVAAISWRGTSTYYADSVKGRFTISRDNAKNTVYLQMNSLKPEDTAVYYCAADLDGDYYYYGQGNDYWGQGTQVTVSS”, the entry is “low polyreactivity”; as for “QVQLVESGGGLVQAGGSHRLSCAASGSIFSTYAMGWYRQAPGKERELVAAITSDGTYADSVKGRFTISRDNARNTVYLQMNSLKPEDTAVYYCAAYYPYTRHGDYWGQGTQVTVSS”, “low polyreactivity”; as for “QVQLVESGGGLVQAGGSHRLSCAASGSIFYKNAMGWYRQAPGKERELVAAITKRGGTTYYADSVKGRFTISRDNAKNTVYLQMNSLKPEDTAVYYCAKYLGPASIVRYEYWGQGTQVTVSS”, “high polyreactivity”.
The entry for “QVQLVESGGGLVQAGGSHRLSCAASGSTYTYNAMGWYRQAPGKERELVAAISSSGGTTYYADSVKGRFTISRDNAKNTVYLQMTSLKPEDTAVYYCAKRWLYTSAFRIMDYWGQGTQVTVSS” is “high polyreactivity”; for “QVQLVESGGGLVQAGGSHRLSFAASGSLFYWYAMGWYRQAPGKERELVAAITTSGGRTYYADSVKGRFTISRDNAKNTVYLQMNSLIPEDSAVYYCNSAALFRYYDRWKTAYDYWGQGTQVTGSS” it is “high polyreactivity”.
The entry for “QVQLVESGGGLVQAGGSHRLSGAASGFIFFYYDMGWYRQAPGKERELVAAISWSGSSTYYADSVNGRFTISRDNAKNTVYLQMNSLNTEDTAVYYCAARYAPSQDWDEYYYWGQGTQVTLSS” is “low polyreactivity”; for “QVQLVESGGGLVQAGGSHRLSSAASVRIFRGYAMGWYRPAPGKERELVAVISYSGTRTYYADSVKGRFTISRDNAKNTVYLQMNSLKPEDTAVYYCNASANGFKEGYWGQGTQVTVSS” it is “high polyreactivity”.
Take “QVQLVESGGGLVQAGGSHRVRCAASGRTFSQYDLGWYRQEPGKERELVAAITRSGSRTYYADSVKGRFTISRDNAKNTVYLQMNSLKPEDTAVYYCNARSISRKKGYPPQRRDGYWGQGTQVTVSS”: the “polyreactivity (PSR sort gate)” value is reported as “high polyreactivity”.
As for “QVQLVESGGGLVQAGGSIRLSCAASGFIFQRYSMGWYRQAPGKERELVAAISSSGGSTYYADSVKGRFTISRDNAKNTVYLQMNSLKPEDTAVYYCAARVPPRTLAYYYWGQGTQVTVSS”, the entry is “high polyreactivity”; as for “QVQLVESGGGLVQAGGSIRLSCAASGFIIKVYAMGWYRQAPGKERELVAAITWSGGSTYYADSVKGRFTISRDNAKNNVYLQMNSLKPEDTAVYYCNTDAYRYPEYDYWGQGTQVTVSS”, “low polyreactivity”.
Regarding “QVQLVESGGGLVQAGGSIRLSCAASGFTFSQYVMGWYRQAPGKERELVAAISYRGGSTYYADSVKGRFTSARDNAKNTVYLQMNSLQPEDTAVYYGAAVAYSWHNRYDYCGQGTQVTVSS”, the “polyreactivity (PSR sort gate)” value was “high polyreactivity”.
The entry for “QVQLVESGGGLVQAGGSIRLSCAASGRIFGSYVRGWYRQGPGKESELVAAISRRGGSTYYADSVTWRFTISRDNAKNTVYLQMNSLTPEDTAVYYCAAEFSPSSNPYDYWGQGTQVTVSS” is “high polyreactivity”; for “QVQLVESGGGLVQAGGSIRLSCAASGRTFGYYAMGWYRQAPGKERELVAAITRTGGSTHYADSVKGRFTISRDNAKNTVYLQMNSLKPEDTAVYYCALDYRYTIPYDYWGQGTQVTVSS” it is “low polyreactivity”; for “QVQLVESGGGLVQAGGSIRLSCAASGSIFWYNAMGWYRQAPGKERELVAGITSGGDTNYADSVKGRFTISRDNAKNTVYLQMNRLKPEDTAVYYCAKRWDGGRRYDYWGQGTQVTVSS” it is “low polyreactivity”.
With “QVQLVESGGGLVQAGGSIRLSCAASGSISAEKSMGRDRQAPGKERELVAAITSGGSTDYADSVKGRFTISRDNAKNNVYLQMNSLKPVDTAVSYCAASGRVGPGYWYDYWGQGTQVTVSS”, the “polyreactivity (PSR sort gate)” value was “low polyreactivity”.
For the sequence “QVQLVESGGGLVQAGGSIRLSCAASGSISPQNVMGWYRQAHGKERELVAAITGGGSTNYADSVKGRFTISRDNAKNTVYLQMNSLIPEDTAVYYCAADGRYAYGYNHWGQGTQVTVSS”, the “polyreactivity (PSR sort gate)” value was “low polyreactivity”.
“QVQLVESGGGLVQAGGSIRLSCAASGSSFVSYAMGWYRQAPGKERELVATISWRGGSTYYADSVKGRFTISRDNAMNTVYLQMNSLKTEDTAVYYCAADVWHSQYYYGYEYWGQGTQVTVSS”: the “polyreactivity (PSR sort gate)” value is given as “low polyreactivity”.
The entry for “QVQLVESGGGLVQAGGSIRLSCAASGSTFCVNAMGWDRQAPGKERELVAVITFTGSRTYYADSVKGRFTISRDNAKNTVYLQMNSLKPEDTAVYYCAADRRRVLYKFDYWGQGTQVTVSS” is “low polyreactivity”; for “QVQLVESGGGLVQAGGSIRLSCAASGSTFRLYARGWYRQAPGKEREFVAAISFRGGSTYYADSVKGRFTISRDYSKNTVYLQMNSLKPEDTAVYYCNADYYYYYSWFNYWGQGTQVTVSS” it is “high polyreactivity”; for “QVQLVESGGGLVQAGGSIRLSCAASGSTIGKNVMGWYRQAPGKERELVAAISARGGRTYYGDSVKGRFTISRDNAKNTVYLQMNSLKPVDTAVYYCNTERSYTGTGRYHSSTAYGYWGQGTQVTVSS” it is “high polyreactivity”.
As for “QVQLVESGGGLVQAGGSIRLSCAASGSTSYIKVMGWYRQAPGKEREMVATISSSGGNTYYADSVKGRFTISRDNAKNTVYLQMNSLKPEDTAVYYCAAKVRVWYYRMDSWGQCTQVTVSS”, the “polyreactivity (PSR sort gate)” value is given as “low polyreactivity”.
Regarding “QVQLVESGGGLVQAGGSIRLSFPASGRTFAYNAMGRYRPAPGKERELVADITSGGSTYYADSVKGRFTISRENAKNTVYLQMNRLKREDTAVYYCAAYPQFWYWDYNYWGQGTQVTVSS”, the “polyreactivity (PSR sort gate)” value is “high polyreactivity”.
The entry for “QVQLVESGGGLVQAGGSIRLTCAASGRIYEIYTMGWYRQATGKETEFVAGITWSGGSTYYADSVKGRFTISRDNAKNTFYLQMNSLKPEDTAVYYCATDEVYWTGYAPSLFDYWGQGTQVTVSS” is “low polyreactivity”; for “QVQLVESGGGLVQAGGSIRLTCAASGSIFVFYAMGWYRQAPGKEREFVATITWSGTSTYYADSVKGRFSISRDNAKNTVYLQMNSLKPEDTAVYYCAARYLGGRRSGDYSRYYWGQGTQVTVSS” it is “high polyreactivity”; for “QVQLVESGGGLVQAGGSIRLTCTPSGIIFGTYAMGWYIQAPGKERELVAAISSSGVSTYYADSVKGRFTISRDNAKNTVYLQMNSLKPEDTAVYYCNARGSNGRSDYDYWGQCTQVTVSS” it is “high polyreactivity”.
The entry for “QVQLVESGGGLVQAGGSLCLSCAASGIFVYNAMVWYRQAPGKEREFVAAINKSGASTFYADSVKGRFTISRDNAKNTVYLQMNSLKPEDTAVYYCRERDYWGQGTQVTVSS” is “low polyreactivity”.
As to “QVQLVESGGGLVQAGGSLGLSCAASGFTFDLYAMGWYRQAPGKERALVAAISWSGGSTRYADSVKGRFTISRDYAKNTVYLQMNSLKPEDTAVYYCARQPRLYFKGKLYGYWGQGTQVTVSS”, the “polyreactivity (PSR sort gate)” value is listed as “high polyreactivity”.
As for “QVQLVESGGGLVQAGGSLGLSCAASGFTFHNYAMGWYRQAPGKERELVAAITWDGGSTYYAVSVKGRFTISRDKAKNTVDLQMNSLKPEDTAVYYCALDPYYYYYGDYNFDYWGQGTQVTVSS”, the entry is “high polyreactivity”; as for “QVQLVESGGGLVQAGGSLGLSCAASGRSLIWYAMGWYRQAPGKERELVAAITSGGRTYYADSVKGRFTISRDNAKKTVYLQMNSLKPEDTAVYYCNKVGRDPGRDFWGQGTQVPVSS”, “high polyreactivity”.
With “QVQLVESGGGLVQAGGSLGLSCAASGRTFANNAMGWYRQAPGKERELVARISNSGSTNYADSVKGRFTISRDNAKNTVYLQMNSLKPEDTAVYDCAARIVRLYSRYDYWGQGTQETVSS”, the “polyreactivity (PSR sort gate)” value is recorded as “low polyreactivity”.
For the sequence “QVQLVESGGGLVQAGGSLGLSCAASGRTFQQNAMGWYRQAPGKERELVAALNSRGGRTYYADYVKGRFTISRDNAKNTVYLQMNSLKPEDTAVYYCAARYYWGQGTEVTVSS”, the “polyreactivity (PSR sort gate)” value is recorded as “high polyreactivity”.
For “QVQLVESGGGLVQAGGSLGLSCAASGRTFSYYAMGWYRQAPGKERELVAAISASGGRTYYADSVKGRFTISRDNAKNTDYLQMNSLTPEDTAVYYCAAGSYQRYAFDYWGQGTQVTVSS”, the “polyreactivity (PSR sort gate)” value is “high polyreactivity”.
With “QVQLVESGGGLVQAGGSLGLSCAASGSIFSRNTMGWYRPARGKERELVAAITSSGGNTYYADSVKGRFTISRDNAKNTVYLQMNSLKPDDTAVYYCAADVAQVGYQVGDSEIYPGYEDWGQGSQVTVSS”, the “polyreactivity (PSR sort gate)” value is “low polyreactivity”.

The record behind these values is the nanobody polyreactivity screen of Harvey et al. (2022).
